Measured values: paper PMC9328677 (2021)

B1: acidic domain of Homo sapiens APLF (APLF^AD, residues 450 to 511), wild type [Homo sapiens] / stoichiometric mixture of full-length Drosophila melanogaster H2A-H2B and H3-H4 (octamer-mix) [Drosophila melanogaster] (parent complex)
chain 1: DEDNDNVGQPNEYDLNDSFLDDEEEDYEPTDEDSDWEPGKEDEEKEDVEELLKEAKRFMKRK
chain 2: not shown
chain 3: not shown
chain 4: not shown
chain 5: not shown

Variants of: B1
Test: ITC
In the case of chain 1 Y13A, chain 1 F19A, chain 1 Y27A, chain 1 W36A, the Kd is reported as 794 nM.
Work on chain 1 Y27A, chain 1 W36A yielded a Kd of 317 nM.
chain 1 Y13A, chain 1 F19A was tested, and the Kd was 671 nM.
